Source: patent US20200079833A1 (AstraZeneca / MedImmune, published 2020)
Starred links: 1 amine or outer side, 2 acyl side, 3 side chain; linkers in the order of their positions; H or OH if unused. Non-standard residues stand in square brackets, D forms with d. Groups on a side chain read outwards from the residue. Primed or numbered codes have the meaning given here. No end group written: not given here. *: point of attachment. Dodecanoyl(12-OPh(4-COOH)) = O=C(O)c1ccc(OCCCCCCCCCCCC(=O)*)cc1; γGlu = O=C(O)[C@H](CCC(=O)[*:2])N[*:1]; αMeF = C[C@](N)(Cc1ccccc1)C(=O)O; αMeK = C[C@](N)(CCCCN)C(=O)O; Lauroyl = CCCCCCCCCCCC(=O)*; αMeS = C[C@](N)(CO)C(=O)O; PEG2′ = not defined here; Aib = CC(C)(N)C(=O)O; Ahx = NCCCCCC(=O)O

T1: glucose-dependent insulinotropic peptide (gastric inhibitory polypeptide) receptor (GIPR) (human, UniProt P48546 22-466)
T1 sequence (looked up): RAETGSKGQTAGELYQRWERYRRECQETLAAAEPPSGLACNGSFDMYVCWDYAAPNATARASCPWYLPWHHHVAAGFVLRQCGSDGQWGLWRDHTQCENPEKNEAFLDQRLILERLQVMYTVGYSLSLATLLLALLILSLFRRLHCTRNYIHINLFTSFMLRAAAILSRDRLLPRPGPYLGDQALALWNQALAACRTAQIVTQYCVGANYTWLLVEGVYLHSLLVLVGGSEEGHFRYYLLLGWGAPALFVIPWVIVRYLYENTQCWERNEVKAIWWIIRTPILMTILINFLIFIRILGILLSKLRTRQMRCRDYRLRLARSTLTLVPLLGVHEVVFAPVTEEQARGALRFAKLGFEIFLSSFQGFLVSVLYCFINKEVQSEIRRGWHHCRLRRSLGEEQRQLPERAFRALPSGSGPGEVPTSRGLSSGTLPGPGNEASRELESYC


Assays:
Assay in all cases: cell-based or functional assay
[1] = target: glucagon receptor (GCGR) (human, UniProt P47871 26-477)
[2] = target: GLP-1 receptor (GLP-1R) (human, UniProt P43220 24-463)
[3] = target: T1, glucose-dependent insulinotropic …

Sequence of glucagon receptor (GCGR) (P47871 26-477): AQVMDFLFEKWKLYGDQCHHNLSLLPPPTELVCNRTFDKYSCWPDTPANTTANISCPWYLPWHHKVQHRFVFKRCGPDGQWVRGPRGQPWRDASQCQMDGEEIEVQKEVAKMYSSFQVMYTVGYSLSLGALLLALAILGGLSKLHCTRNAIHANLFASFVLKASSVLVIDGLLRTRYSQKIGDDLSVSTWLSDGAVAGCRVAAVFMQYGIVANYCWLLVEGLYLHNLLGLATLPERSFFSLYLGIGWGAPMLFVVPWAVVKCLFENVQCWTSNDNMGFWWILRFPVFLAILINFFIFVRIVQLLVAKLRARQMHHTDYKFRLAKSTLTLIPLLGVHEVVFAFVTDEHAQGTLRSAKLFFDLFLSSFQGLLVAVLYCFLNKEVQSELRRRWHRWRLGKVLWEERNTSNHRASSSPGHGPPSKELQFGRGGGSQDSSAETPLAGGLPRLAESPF

cAMP Primary assay EC50 Gluc-R [1] [nM] | cAMP Primary assay EC50 Gluc-R (2nd) [1] [nM] | cAMP Mean pM GLP-1R [2] [pM] | cAMP Primary assay EC50 GLP-1R n1 [2] [nM] | cAMP Primary assay EC50 GLP-1R n2 [2] [nM] | cAMP Primary assay EC50 GIP-R [3] [nM] | cAMP Primary assay EC50 GIP-R (2nd) [3] [nM] | Binder
27 | 27 | 5.2 | 0.0066 | 0.0038 | 27 | 27 | H[Aib]EGS[αMeF]TSDV[αMeS]S[αMeF]LEGEAAK([γGlu-Dodecanoyl(12-OPh(4-COOH))])E[αMeF]IA[αMeF]VV[αMeK]GG-NH2 (N-terminus assumed; SMILES CC[C@H](C)[C@H](NC(=O)[C@](C)(Cc1ccccc1)NC(=O)[C@H](CCC(=O)O)NC(=O)[C@H](CCCCNC(=O)CC[C@H](NC(=O)CCCCCCCCCCCOc1ccc(C(=O)O)cc1)C(=O)O)NC(=O)[C@H](C)NC(=O)[C@H](C)NC(=O)[C@H](CCC(=O)O)NC(=O)CNC(=O)[C@H](CCC(=O)O)NC(=O)[C@H](CC(C)C)NC(=O)[C@](C)(Cc1ccccc1)NC(=O)[C@H](CO)NC(=O)[C@](C)(CO)NC(=O)[C@@H](NC(=O)[C@H](CC(=O)O)NC(=O)[C@H](CO)NC(=O)[C@@H](NC(=O)[C@](C)(Cc1ccccc1)NC(=O)[C@H](CO)NC(=O)CNC(=O)[C@H](CCC(=O)O)NC(=O)C(C)(C)NC(=O)[C@@H](N)Cc1c[nH]cn1)[C@@H](C)O)C(C)C)C(=O)N[C@@H](C)C(=O)N[C@@](C)(Cc1ccccc1)C(=O)N[C@H](C(=O)N[C@H](C(=O)N[C@@](C)(CCCCN)C(=O)NCC(=O)NCC(N)=O)C(C)C)C(C)C) [SEQ ID NO 137]
26 | 26 | 17.2 | 0.019 | 0.015 | 26 | 26 | H[Aib]EGS[αMeF]TSDV[αMeS]S[αMeF]LEGEAAK([γGlu-γGlu-Dodecanoyl(12-OPh(4-COOH))])E[αMeF]IA[αMeF]VV[αMeK]GG-NH2 (N-terminus assumed; SMILES CC[C@H](C)[C@H](NC(=O)[C@](C)(Cc1ccccc1)NC(=O)[C@H](CCC(=O)O)NC(=O)[C@H](CCCCNC(=O)CC[C@H](NC(=O)CC[C@H](NC(=O)CCCCCCCCCCCOc1ccc(C(=O)O)cc1)C(=O)O)C(=O)O)NC(=O)[C@H](C)NC(=O)[C@H](C)NC(=O)[C@H](CCC(=O)O)NC(=O)CNC(=O)[C@H](CCC(=O)O)NC(=O)[C@H](CC(C)C)NC(=O)[C@](C)(Cc1ccccc1)NC(=O)[C@H](CO)NC(=O)[C@](C)(CO)NC(=O)[C@@H](NC(=O)[C@H](CC(=O)O)NC(=O)[C@H](CO)NC(=O)[C@@H](NC(=O)[C@](C)(Cc1ccccc1)NC(=O)[C@H](CO)NC(=O)CNC(=O)[C@H](CCC(=O)O)NC(=O)C(C)(C)NC(=O)[C@@H](N)Cc1c[nH]cn1)[C@@H](C)O)C(C)C)C(=O)N[C@@H](C)C(=O)N[C@@](C)(Cc1ccccc1)C(=O)N[C@H](C(=O)N[C@H](C(=O)N[C@@](C)(CCCCN)C(=O)NCC(=O)NCC(N)=O)C(C)C)C(C)C) [SEQ ID NO 138]
27 | 27 | 5 | 0.0054 | 0.0045 | 27 | 27 | H[Aib]EGS[αMeF]TSDV[αMeS]S[αMeF]LEGEAAK([PEG2′-PEG2′-Lauroyl])E[αMeF]IA[αMeF]VV[αMeK]GG-NH2 [SEQ ID NO 135]
26 | 26 | 3 | 0.0035 | 0.0025 | 26 | 26 | H[Aib]EGS[αMeF]TSDV[αMeS]S[αMeF]LEGEAAK([PEG2′-PEG2′-PEG2′-Lauroyl])E[αMeF]IA[αMeF]VV[αMeK]GG-NH2 [SEQ ID NO 136]

More lines, now with the values behind:

Binder | cAMP Primary assay EC50 Gluc-R [1] [nM] | cAMP Primary assay EC50 Gluc-R (2nd) [1] [nM] | cAMP Mean pM GLP-1R [2] [pM] | cAMP Primary assay EC50 GLP-1R n1 [2] [nM] | cAMP Primary assay EC50 GLP-1R n2 [2] [nM] | cAMP Primary assay EC50 GIP-R [3] [nM] | cAMP Primary assay EC50 GIP-R (2nd) [3] [nM]
H[Aib]EGS[αMeF]TSDV[αMeS]S[αMeF]LEGEAAK([Ahx-Ahx-Lauroyl])E[αMeF]IA[αMeF]VV[αMeK]GG-NH2 (N-terminus assumed; SMILES CCCCCCCCCCCC(=O)NCCCCCC(=O)NCCCCCC(=O)NCCCC[C@H](NC(=O)[C@H](C)NC(=O)[C@H](C)NC(=O)[C@H](CCC(=O)O)NC(=O)CNC(=O)[C@H](CCC(=O)O)NC(=O)[C@H](CC(C)C)NC(=O)[C@](C)(Cc1ccccc1)NC(=O)[C@H](CO)NC(=O)[C@](C)(CO)NC(=O)[C@@H](NC(=O)[C@H](CC(=O)O)NC(=O)[C@H](CO)NC(=O)[C@@H](NC(=O)[C@](C)(Cc1ccccc1)NC(=O)[C@H](CO)NC(=O)CNC(=O)[C@H](CCC(=O)O)NC(=O)C(C)(C)NC(=O)[C@@H](N)Cc1c[nH]cn1)[C@@H](C)O)C(C)C)C(=O)N[C@@H](CCC(=O)O)C(=O)N[C@@](C)(Cc1ccccc1)C(=O)N[C@H](C(=O)N[C@@H](C)C(=O)N[C@@](C)(Cc1ccccc1)C(=O)N[C@H](C(=O)N[C@H](C(=O)N[C@@](C)(CCCCN)C(=O)NCC(=O)NCC(N)=O)C(C)C)C(C)C)[C@@H](C)CC) [SEQ ID NO 132] | 28 | 28 | 9 | 0.011 | 0.0071 | 28 | 28
H[Aib]EGS[αMeF]TSDV[αMeS]S[αMeF]LEGEAAK([Ahx-Lauroyl])E[αMeF]IA[αMeF]VV[αMeK]GG-NH2 (N-terminus assumed; SMILES CCCCCCCCCCCC(=O)NCCCCCC(=O)NCCCC[C@H](NC(=O)[C@H](C)NC(=O)[C@H](C)NC(=O)[C@H](CCC(=O)O)NC(=O)CNC(=O)[C@H](CCC(=O)O)NC(=O)[C@H](CC(C)C)NC(=O)[C@](C)(Cc1ccccc1)NC(=O)[C@H](CO)NC(=O)[C@](C)(CO)NC(=O)[C@@H](NC(=O)[C@H](CC(=O)O)NC(=O)[C@H](CO)NC(=O)[C@@H](NC(=O)[C@](C)(Cc1ccccc1)NC(=O)[C@H](CO)NC(=O)CNC(=O)[C@H](CCC(=O)O)NC(=O)C(C)(C)NC(=O)[C@@H](N)Cc1c[nH]cn1)[C@@H](C)O)C(C)C)C(=O)N[C@@H](CCC(=O)O)C(=O)N[C@@](C)(Cc1ccccc1)C(=O)N[C@H](C(=O)N[C@@H](C)C(=O)N[C@@](C)(Cc1ccccc1)C(=O)N[C@H](C(=O)N[C@H](C(=O)N[C@@](C)(CCCCN)C(=O)NCC(=O)NCC(N)=O)C(C)C)C(C)C)[C@@H](C)CC) [SEQ ID NO 131] | 29 | 29 | 11.7 | 0.014 | 0.0099 | 29 | 29
H[Aib]EGS[αMeF]TSDV[αMeS]S[αMeF]LEGEAAK([Ahx-Ahx-Ahx-Lauroyl])E[αMeF]IA[αMeF]VV[αMeK]GG-NH2 (N-terminus assumed; SMILES CCCCCCCCCCCC(=O)NCCCCCC(=O)NCCCCCC(=O)NCCCCCC(=O)NCCCC[C@H](NC(=O)[C@H](C)NC(=O)[C@H](C)NC(=O)[C@H](CCC(=O)O)NC(=O)CNC(=O)[C@H](CCC(=O)O)NC(=O)[C@H](CC(C)C)NC(=O)[C@](C)(Cc1ccccc1)NC(=O)[C@H](CO)NC(=O)[C@](C)(CO)NC(=O)[C@@H](NC(=O)[C@H](CC(=O)O)NC(=O)[C@H](CO)NC(=O)[C@@H](NC(=O)[C@](C)(Cc1ccccc1)NC(=O)[C@H](CO)NC(=O)CNC(=O)[C@H](CCC(=O)O)NC(=O)C(C)(C)NC(=O)[C@@H](N)Cc1c[nH]cn1)[C@@H](C)O)C(C)C)C(=O)N[C@@H](CCC(=O)O)C(=O)N[C@@](C)(Cc1ccccc1)C(=O)N[C@H](C(=O)N[C@@H](C)C(=O)N[C@@](C)(Cc1ccccc1)C(=O)N[C@H](C(=O)N[C@H](C(=O)N[C@@](C)(CCCCN)C(=O)NCC(=O)NCC(N)=O)C(C)C)C(C)C)[C@@H](C)CC) [SEQ ID NO 133] | 27 | 27 | 29.4 | 0.034 | 0.025 | 27 | 27
H[Aib]EGS[αMeF]TSDV[αMeS]S[αMeF]LEGEAAK([PEG2′-Lauroyl])E[αMeF]IA[αMeF]VV[αMeK]GG-NH2 [SEQ ID NO 134] | 28 | 28 | 6 | 0.007 | 0.0049 | 28 | 28
